Laboratory results as given in the RNAGym collection of RNA variant scans (doi:10.7554/elife.90254).

B1: LINE1-full (parent)
chain: UACGUAGGUGGUUUUCCCCUGAUAGUGCUAAGGGGGCCUGGAAGUUUGGACUGGGCAGAGCUCAACACAGCGUGGCAAAGUGGCUGUGGCUAGACUGCCUCUCUGGAUUCCUCGUCACUCAGCAGGGCAUCUCUGAGAGAAAUGCC

Variants of: B1
Assay: self-cleavage, relative activity (ratio to wild type); higher = more cleavage; in vitro, sequencing; the parent is a self-cleaving ribozyme

| Variant | self-cleavage |
| --- | --- |
| UACGUAGGUGGUUUUCCCCUGAUAGUGCUAAGGGGGCCUGGAAGUUUGGUCUGGGCAGAGCUCAACACAGCGUGGCAAAGUGGCUGUGGCUAGACUGCCUCUCUGGAUUACUCGUCACUCAGCAGGGCAUCUCUGAGAGAAAUGCC | 1.53 |
| UACGUAGGUGGUUUUCCCCUGAUAGUGCUAAGGGGGCCUGGAAGUUUGGACUGGGCAGAGCUCAACACAGCGUGGCAAAGUGGCUGUGGCUAGACUGCCUCUCGGGAUUCCUCGUCACUCAGCAGGGCAUCUCUGAGAGGAAUGCC | 0.73 |
| UACGUAGGUGGUUUUCCCCUGAUAGUGCUAAGGGGCCCUGGAAGUUUGGACUGGGCAGAGCUCAACACAGCGUGGCAAAGUGGCUGUGGCUAGACUGCCUCUCUGGAUUCCUCGUCACUCAGCAGGGCAUCUCUGAGAGAAAUGCU | 1.29 |
| UACGUAGGUGGUUUUCCCCUGAUAGUGCUAAGGGGGCCUGGAAGUUUGCACUGGGCAGAGCUCAACACAGCGUGGCAAAGUGGCUGUGGCUAGACUGCCUCUCUGGAUUCCUCGUCACUCGGCAGGGCAUCUCUGAGAGAAAUGCC | 0.93 |
| UACGUAGGUGGUUUUCCCCUGAUAGUGCUAAGGGGGCCUGGAAGUUUGGACUGGGCAGAGCUCAACACAGCGUGGCAAAGUGGCUGUGGCUAGACUGCCUCUCUGGAUUCCUCGUCACUCGGCAGGGCAUCUCUGAGAGAAAAGCC | 0.91 |
| UACGUAGGUGGUAUUCCCCUGAUAGUGCUAAGGGGGCCUGGAAGUUUGGACUGGGCAGAGCUUAACACAGCGUGGCAAAGUGGCUGUGGCUAGACUGCCUCUCUGGAUUCCUCGUCACUCAGCAGGGCAUCUCUGAGAGAAAUGCC | 0.35 |
| UACGUAGGUGGUUUUACCCUGAUAGUGCUAAGGGGGCCUGGAAGUUUGGACUGGGCAGAGCUCAACACAGCGUGGCAAAGUGGCUGUGGCUAGACUGCCUCUCUGGAUUCCUCGUCACUCUGCAGGGCAUCUCUGAGAGAAAUGCC | 1.97 |
| UACGUAGGUGGUUCUCCCCUGAUAGUGCUAAGGGGGCCUGGAAGUUUGGACUGGGCAAAGCUCAACACAGCGUGGCAAAGUGGCUGUGGCUAGACUGCCUCUCUGGAUUCCUCGUCACUCAGCAGGGCAUCUCUGAGAGAAAUGCC | 0.06 |
| UACGUAGGUGGUUUUCCCCUGAUAGUGCUAAGGGGGCCUGGAAGUUUGGACUGGGCAGAGCUCAACACAGCGUGGCAAAGUGGCUGCGGCUAGACUGCCUCUCAGGAUUCCUCGUCACUCAGCAGGGCAUCUCUGAGAGAAAUGCC | 0.09 |
| UACGUAGGUGGUUUUCCCCUGAUAGUGCUAAGGGGGCCUGGAAGUUUGGACUGGGUAGAGCUCAACACAGCGUGGCAAAGUGGCUGUGGCUAGACUGCCUCUCUGGAUUCCUCGUCACUCAGCAGGGCAUCUCUGUGAGAAAUGCC | 0.13 |
| UACGUAGGUGGUCUUCCCCUGAUAGUGCUAAGGGGGCCUGGAAGUUUGGACUGGGCAGAGCUCAACACAGCGUGGCAAAGUGGCUGUGGCUAGACUGCCUCUCUGGAUUCCUCGUCACUCAGCAGGGAAUCUCUGAGAGAAAUGCC | 0.79 |
| UACGUAGGUGGUUUUCCCCUGAUAGUGCUAAGGGGGCCUGGAAGUUUGGACUGGGCAGAGCUCAACACAGCGUGGCAAAGUGGCUGUGGCUAGGCUGCCUCUCUGGAUUCCUCGUCACUCAGCAGGGCAUCUCUGGGAGAAAUGCC | 0.34 |
| UACGUAGGUGGUUUUCCCCUGAUAGUGCUAAGGGGGCCUGGAAGUUUGGACUGGGCAGAGCUCAACACAGCGUGGCAAAGUGGCUGUGGCUAGACUGCCUCUCUGGAUUCCACGUCACUCAGCAGGGCAUCUCUGAGUGAAAUGCC | 2.19 |
| UACGUAGGUGGUCUUCCCCUGAUAGUGCUAAGGGGGCCUGGAAGUUUGGACUGGGCAGAGCUCAACACAGCGUGGCAAAGUGGCUGUGGCUAGACUGCCUCUCUGGAUUCCUCGUCACUCAGCAGGGCAACUCUGAGAGAAAUGCC | 1.6 |
| UACGUAGGUGGUUUUCCCCUGAUAGUGCUAAGGGGGCCUGGAAGUUUGGACUGGGCAGAGCUCAACACAGCGUGGCAAAGUGGCUGUGGCUAGACUGCCUCUCUGGAUUCCUCGUCACUCAGCAGGGCAUCUCUGAGAGUAAUACC | 1.39 |
| UACGUAGGAGGUUUUCCCCUGAUAGUGCUAAGGGGGCCUGGAAGUUUGGACUGGGCAGAGCUCAACACAGCGUGGCAAAGUGGCUGUGGCUAGACUGCCUCUCUGGAUUCCCCGUCACUCAGCAGGGCAUCUCUGAGAGAAAUGCC | 1.32 |
| UACGUAGGUGGUUUUCCCCUGAUAGUGCUAAGGGGGCCUGGAAGUUUGGACUGGGCAGAACUCAACACAGCGUGGCAAAGUGGCUGUGGCUAGACUGCCUCUCUGGAUCCCUCGUCACUCAGCAGGGCAUCUCUGAGAGAAAUGCC | 0.02 |
| UACGUAGGUGGUUUUCCCCUGAUAGUGCUAAGGGGGCCUGGAAGUUUGGACUGGGCAGUGCUCAACACAGCGUGGCAAAGUGGCUGUGGCUAGACUGCCUCUCUGGAUUCCUCGUCACUCAGCAGGGCACCUCUGAGAGAAAUGCC | 0.63 |
| UACGUAGGUGGAUUUCCCCUGAUAGUGCUAAGGGGGCCUGGAAGUUUGGACUGGGCAGAGCUCAACACAGCGUGGCAAAGUGGCUGUGGCUAGACUGCCUCCCUGGAUUCCUCGUCACUCAGCAGGGCAUCUCUGAGAGAAAUGCC | 1.42 |
| UACGUAGGUGGUUUUCCCCUGAUAGUGCUAAGGGGGCCUGGAAGUUUGGACUGGGCAGAGCUCAACACAGCGUGGCAAAGUGGCUGUGGCUAGACUGCCUCUCUGGAUUCCUCGUCACUCAGCCGGGCGUCUCUGAGAGAAAUGCC | 0.66 |
